Consider 5 molecules from patent publication US12018081B1, “Photoconjugation reactions for modification of specific proteins on live cells” (The Regents of the University of Colorado, a body, priority 2019, dated 2024).

As a reminder, the Kd is a measure of binding affinity in units of concentration. A high value points to a looser complex. For orientation: Km means the substrate concentration at which the rate is half of its maximum. By kcat is commonly meant the maximal rate divided by the concentration of active sites.

One series has as its system MDA-MB-468 cells. In kind it is cell-based, human. The settings on record: drug or prodrug only, no protein, FIG. 4. Here is the method: Finally, having established both the photocrosslinking of the […] affibody-enzyme to EGFR on living cells and retention of protein expression before and after endocytosis, the enzymatic activity of the fusion proteins was then leveraged for cell killing by prodrug conversion. […] Next, prodrug therapy experiments were run against MDA-MB-468 cells in vitro. In 96-well plates, cells were incubated with 1 μM of WT-CodA, N23-CodA, or CodA alone. As before, after 3 h the cells were irradiated with 365 nm light for 30 min followed by further incubation to a total time of 8, 24, or 48 h. When each time point was reached, the excess affibody-enzymes were removed by washing the cells three times with PBS, and 2 mM of 5-FC was added. […] After 12 h incubation with 5-FC, excess pro-drug was removed, cells were washed with PBS, and viability was measured by MTT assay. […]
Prodrug Cytotoxicity (MTT) Assays: The MDA-MB-468 cells were grown to confluence, after which the cells were washed once with DPBS (Gibco) and then trypsinized with 0.025% trypsin-EDTA (Gibco). […] The crystals were dissolved in 100 μL isopropyl alcohol (IPA), and absorbance from the wells was measured at 570 nm in a Tecan Safire II Multimode Plate reader. The readings were then normalized to the cells that were treated with neither enzyme, enzyme-affibody, nor 5-FC/5-FU to calculate the fractional viability. […]

Series [1] deals with EGFR expressed on live MDA-MB-468 human breast carcinoma cells (human) (UniProt P00533). As to the kind of experiment: cell-based or functional assay.
The target of series [2] is Extracellular domain of purified human EGFR (Sino Biological) (human) (UniProt P00533). Put plainly: microscale thermophoresis, AF647-labelled soluble EGFR, fusion protein titrated. A general note: In MST a laser heats a spot of the sample, and binding alters the fluorescence response.
A short description of series [3]: Affibody-enzyme kinetic activity assay with cytosine (UV-Vis). In kind it is biochemical. The settings on record: 50 nM enzyme, cytosine 100-250 μM, 50 mM Tris-HCl pH 7.5. Here is the method:
Affibody-enzyme Kinetic Activity Assays with Cytosine: The enzymatic assay for N23-CodA, WT-CodA, and CodA were performed by varying substrate concentration and measuring the absorbance using a UV-VIS spectrophotometer (Agilent Technologies, Cary Series 100). A stock of 10 mM cytosine was prepared in 50 mM Tris-HCl at pH 7.5. Varying concentrations (250, 200, 150 and 100 μM) of cytosine solution were prepared from the stock and mixed with 50 nM of the enzyme and enzyme-affibodies. The reaction was run for 15 min with OD267 (cytosine) and OD260 (uracil) readings taken every 12 s. The concentration of cytosine was calculated for each time point and the kinetic parameters KM and kcat were calculated using the methods of initial rates and double reciprocal plots.

For series [4] the following is noted: reported value for free CodA; cited from earlier work.

As to `Nc1nc(=O)[nH]cc1F` [5-FC, 5-fluorocytosine], the “baseline viability (cell viability fraction)” value in the series with MDA-MB-468 cells was 0.854.
Turning to `O=c1[nH]cc(F)c(=O)[nH]1` [5-FU, 5-fluorouracil], the “baseline viability (cell viability fraction)” value in the series on MDA-MB-468 cells turned out to be 0.467.
For the molecule “BP-modified mutant affibody-enzyme (N23C ZEGFR:1907 affibody with benzophenone, fused to cytosine deaminase) (from UniProt P25524 2-427) (designed binder)”, the cell viability of MDA-MB-468 cells by MTT assay after 5-FC prodrug in series [1] fell in the range of 50 to 55%. Also, the Kd in series [2] came out at 44 nM.
Consider “WT affibody-fused CodA (ZEGFR:1907 affibody fused to cytosine deaminase) (from UniProt P25524 2-427) (designed binder)”, for which the equilibrium dissociation constant (Kd) in series [2] came to 25 nM.

B1: CodA: Cytosine deaminase, bacterial enzyme of E. coli, alone without affibody (protein, UniProt P25524 2-427, looked up)
Cytosine deaminase: SNNALQTIINARLPGEEGLWQIHLQDGKISAIDAQSGVMPITENSLDAEQGLVIPPFVEPHIHLDTTQTAGQPNWNQSGTLFEGIERWAERKALLTHDDVKQRAWQTLKWQIANGIQHVRTHVDVSDATLTALKAMLEVKQEVAPWIDLQIVAFPQEGILSYPNGEALLEEALRLGADVVGAIPHFEFTREYGVESLHKTFALAQKYDRLIDVHCDEIDDEQSRFVETVAALAHHEGMGARVTASHTTAMHSYNGAYTSRLFRLLKMSGINFVANPLVNIHLQGRFDTYPKRRGITRVKEMLESGINVCFGHDDVFDPWYPLGTANMLQVLHMGLHVCQLMGYGQINDGLNLITHHSARTLNLQDYGIAAGNSANLIILPAENGFDALRRQVPVRYSVRGGKVIASTQPAQTTVYLEQPEAIDYKR
As for B1, in series [3], the Km is 2520 µM and the kcat stood at 53.57 s⁻¹. Besides, the “melting temperature, reported value” in series [4] is 85 °C.
